Assays:
Format in all cases: in vivo
[1] = system: Arabidopsis thaliana T1 plants; assay: Mesotrione tolerance of transgenic Arabidopsis thaliana T1 plants (spray, bleached leaf area grade, damage score); design: Scores: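 damage score 0-100 computed as Σ(N×S)/(T×M)×100 over grades 0-3 with higher meaning more damage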; details: for Resistance evaluation / Classification and statistics of the grade of pesticide damage: Grade 0 / Classification and statistics of the grade of pesticide damage: Grade 1 / Classification and statistics of the grade of pesticide damage: Grade 2 / Classification and statistics of the grade of pesticide damage: Grade 3 / Scores: 7 DAT, Table 3; for Classification and statistics of the grade of pesticide damage: Grade 0 / Classification and statistics of the grade of pesticide damage: Grade 1 / Classification and statistics of the grade of pesticide damage: Grade 2 / Classification and statistics of the grade of pesticide damage: Grade 3: number of plants; for Scores: pesticide damage score 0-100
Outline: (§1)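 Damage graded 0–3 from the proportion of bleached leaf area 7 days after spraying. Plants were glufosinate-selected T1 lines, 18 days after sowing, plus vector and wild-type controls. Rates: mesotrione 52.5–420, isoxaflutole 35–280, topramezone 25–200 g ai/ha, with water (0×).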

[2] = system: Arabidopsis thaliana T1 plants; assay: Topramezone tolerance of transgenic Arabidopsis thaliana T1 plants (spray, bleached leaf area grade, damage score); details: for Classification and statistics of the grade of pesticide damage: Grade 0 / Classification and statistics of the grade of pesticide damage: Grade 1 / Classification and statistics of the grade of pesticide damage: Grade 2 / Classification and statistics of the grade of pesticide damage: Grade 3: number of plants; for Grade 0 (classification and statistics of the grade of pesticide damage; number of plants) / Grade 1 (classification and statistics of the grade of pesticide damage; number of plants) / Grade 2 (classification and statistics of the grade of pesticide damage; number of plants) / Grade 3 (classification and statistics of the grade of pesticide damage; number of plants): 16 plants
Text: T1 transformants were initially selected from the untransformed seeds using a glufosinate selection scheme. The Arabidopsis thaliana T1 plants (AsHPPD-02) into which the AsHPPD-02 nucleotide sequence was introduced, the Arabidopsis thaliana T1 plants (AsHPPDm-F372A-02) into which the AsHPPDm-F372A-02 nucleotide sequence was introduced, the Arabidopsis thaliana T1 plants (AsHPPDm-F383W-02) into which the AsHPPDm-F383W-02 nucleotide sequence was introduced, the Arabidopsis thaliana T1 plants (AsHPPDm-F372A-F383W-02) into which the AsHPPDm-F372A-F383W-02 nucleotide sequence was introduced, the Arabidopsis thaliana T1 plants (DBN11726N) into which the control recombinant expression vector DBN11726N was introduced, and the wild-type Arabidopsis thaliana plants (CK) (18 days after sowing) were sprayed respectively with topramezone at three concentrations (100 g ai/ha (four-fold field concentration, 4×), 200 g ai/ha (eight-fold field concentration, 8×), and 0 g ai/ha (water, 0×)), isoxaflutole at three concentrations (140 g ai/ha (two-fold field concentration, 2×), 280 g ai/ha (four-fold field concentration, 4×), and 0 g ai/ha (water, 0×)), and mesotrione at three concentrations (210 g ai/ha (two-fold field concentration, […]), 420 g ai/ha (four-fold field concentration, 4×), and 0 g ai/ha (water, 0×)), to determine the tolerance of Arabidopsis thaliana to the herbicides. The degree of damage caused by the herbicide was measured for each plant according to the proportion of bleached leaf area (the proportion of bleached leaf area=bleached leaf area/total leaf area×100%) 7 days after spraying (7 DAT): the case where there is basically no bleached phenotype is defined as grade 0, the case where the proportion of bleached leaf area is less than 50% is defined as grade 1, the case where the proportion of bleached leaf area is more than 50% is defined as grade 2, and the case where the proportion of bleached leaf area is 100% grade is defined as grade 3.
According to the method as described above in point 6 of Example 1, the aforementioned Arabidopsis thaliana T1 plants and wild-type Arabidopsis thaliana plants (CK) (18 days after sowing) were sprayed respectively with topramezone at three concentrations (25 g ai/ha (one-fold field concentration, 1×). 100 g ai/ha (four-fold field concentration, 4×), and 0 g ai/ha (water, 0×)), isoxaflutole at three concentrations (35 g ai/ha (half-fold field concentration, 0.5×). 70 g ai/ha (one-fold field concentration, 1×), and 0 g ai/ha (water, 0×)), and mesotrione at three concentrations (52.5 g ai/ha (half-fold field concentration, 0.5×), 105 g ai/ha (one-fold field concentration, 1×), and 0 g ai/ha (water, 0×)) to detect the tolerance of Arabidopsis thaliana to the herbicides.
According to the method as described above in point 6 of Example 1, the aforementioned Arabidopsis thaliana T1 plants and wild-type Arabidopsis thaliana plants (CK) (18 days after sowing) were sprayed with topramezone at three different concentrations (i.e., 100 g ai/ha (four-fold field concentration, 4×), 200 g ai/ha (eight-fold field concentration, 8×) and 0 g ai/ha (water, 0×)), isoxaflutole at three different concentrations (i.e., 140 g ai/ha (two-fold field concentration, 2×), 280 g ai/ha (four-fold field concentration, 4×) and 0 g ai/ha (water, 0×)), and mesotrione at three different concentrations (i.e., 210 g ai/ha (two-fold field concentration, 2×), 420 g ai/ha (four-fold field concentration, 4×) and 0 g ai/ha (water, 0×)) respectively to detect the herbicide tolerance of Arabidopsis thaliana. […]

[3] = system: Arabidopsis thaliana T1 plants; assay: Isoxaflutole tolerance of transgenic Arabidopsis thaliana T1 plants (spray, bleached leaf area grade, damage score); details: for Grade 0 (classification and statistics of the grade of pesticide damage; number of plants) / Grade 1 (classification and statistics of the grade of pesticide damage; number of plants) / Grade 2 (classification and statistics of the grade of pesticide damage; number of plants) / Grade 3 (classification and statistics of the grade of pesticide damage; number of plants): 16 plants; for Classification and statistics of the grade of pesticide damage: Grade 0 / Classification and statistics of the grade of pesticide damage: Grade 1 / Classification and statistics of the grade of pesticide damage: Grade 2 / Classification and statistics of the grade of pesticide damage: Grade 3: number of plants;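 for Scores: Weighted damage index from 0 to 100 where higher means more damage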
Outline: as §1

[4] = mesotrione 210 g ai/ha (two-fold field concentration)
[5] = topramezone 100 g ai/ha (4×), 7 DAT, Table 1
[6] = topramezone 200 g ai/ha (8×), 7 DAT, Table 1
[7] = topramezone 100 g ai/ha (4x field concentration), Arabidopsis thaliana T1 plants
[8] = topramezone 200 g ai/ha (8x field concentration), Arabidopsis thaliana T1 plants
[9] = isoxaflutole 140 g ai/ha (2x field concentration), Arabidopsis thaliana T1 plants
[10] = isoxaflutole 140 g ai/ha (2×), 7 DAT, Table 2
[11] = isoxaflutole 280 g ai/ha (4x field concentration), Arabidopsis thaliana T1 plants
[12] = isoxaflutole 280 g ai/ha (4×), 7 DAT, Table 2

B1: AsHPPDm-F383W-02: nucleotide sequence encoding Avena sativa HPPD with F383W; vector DBN11729 (nucleic acid)
DNA: ATGCCACCTACTCCAGCTACAGCTACTGGTGCTGCTGCTGCTGCCGTTACTCCTGAGCACGCTGCCAGGTCATTCCCCAGGGTGGTTCGCGTGAACCCCAGATCTGATAGGTTCCCAGTTCTGAGCTTCCACCATGTTGAGCTGTGGTGCGCTGATGCTGCTTCTGCTGCTGGCAGGTTCTCTTTCGCTCTTGGTGCTCCACTCGCTGCTAGATCTGATCTGTCTACAGGAAATAGCGCTCATGCCTCACTCCTGCTTCGCTCAGGTGCTTTGGCCTTCCTCTTCACCGCTCCATATGCTCCCCCACCTCAGGAGGCTGCTACTGCTGCTGCTACAGCCTCCATTCCAAGCTTCTCAGCTGATGCCGCTAGAACCTTCGCTGCTGCTCATGGACTTGCCGTGAGGTCTGTTGGTGTTCGCGTGGCTGATGCTGCTGAGGCTTTCAGAGTTTCCGTTGCCGGCGGAGCTAGGCCAGCTTTCGCTCCTGCTGATTTGGGACATGGTTTCGGCCTGGCTGAGGTTGAGCTTTACGGTGACGTGGTTCTCCGCTTCGTGTCTTACCCAGATGAGACTGACCTGCCTTTCCTTCCCGGCTTCGAGAGAGTTTCCTCTCCTGGTGCCGTGGATTACGGCCTGACAAGGTTCGACCACGTGGTTGGAAACGTTCCCGAGATGGCTCCAGTGATCGATTACATGAAGGGCTTCCTTGGATTCCATGAGTTCGCCGAGTTCACTGCTGAGGACGTGGGAACCACTGAGTCCGGTTTGAACTCTGTGGTTCTCGCCAACAATTCTGAGGCTGTTTTGCTCCCTCTGAATGAGCCTGTGCATGGAACCAAGAGGAGAAGCCAGATTCAAACTTACCTGGAGTACCACGGTGGCCCTGGAGTTCAGCATATCGCCCTTGCTTCTAATGATGTGTTGCGCACACTCAGAGAGATGCGCGCCAGAACCCCCATGGGAGGTTTCGAGTTCATGGCCCCACCACAGGCTAAGTACTACGAGGGCGTTAGAAGGATTGCTGGAGACGTGTTGAGCGAGGAGCAGATCAAGGAGTGCCAAGAGCTGGGTGTTCTTGTGGATAGGGATGACCAGGGCGTTCTGCTTCAAATTTTCACTAAGCCAGTGGGCGACCGCCCTACATTCTGGCTTGAGATGATTCAAAGAATCGGCTGCATGGAGAAGGATGAGGTTGGACAGGAGTACCAAAAGGGCGGATGCGGTGGCTTCGGAAAGGGTAACTTCAGCGAGTTGTTCAAGTCAATCGAGGACTACGAGAAGAGCCTCGAGGTGAAGCAGTCAGTGGTTGCCCAAAAGTCCTGA
modifications: AsHPPDm-F383W-02 Nucleotide Sequence
notes: vector DBN11729
tolerance to mesotrione (in words) ([1]; in vivo): different degrees of tolerance | Resistance evaluation [1, 4]: moderately | Resistance evaluation ([1]; mesotrione 420 g ai/ha (4×)): poorly resistant (poorly resistant plants (scores 34-67)) | tolerance to mesotrione (resistance class) ([1]; mesotrione at four-fold field concentration): poorly-resistant | tolerance to mesotrione (resistance class) ([1]; mesotrione at two-fold field concentration): moderately-resistant | Classification and statistics of the grade of pesticide damage: Grade 0 [1, 4]: 4 | Classification and statistics of the grade of pesticide damage: Grade 1 [1, 4]: 10 | Classification and statistics of the grade of pesticide damage: Grade 2 [1, 4]: 1 | Classification and statistics of the grade of pesticide damage: Grade 3 [1, 4]: 1 | Classification and statistics of the grade of pesticide damage: Grade 0 ([1]; mesotrione 420 g ai/ha (4×)): 0 | Classification and statistics of the grade of pesticide damage: Grade 1 ([1]; mesotrione 420 g ai/ha (4×)): 2 | Classification and statistics of the grade of pesticide damage: Grade 2 ([1]; mesotrione 420 g ai/ha (4×)): 14 | Classification and statistics of the grade of pesticide damage: Grade 3 ([1]; mesotrione 420 g ai/ha (4×)): 0 | Scores [1, 4]: 31 | Scores ([1]; mesotrione 420 g ai/ha (4×)): 63 | Classification and statistics of the grade of pesticide damage: Grade 0 [2, 5]: 16 | Classification and statistics of the grade of pesticide damage: Grade 1 [2, 5]: 0 | Classification and statistics of the grade of pesticide damage: Grade 2 [2, 5]: 0 | Classification and statistics of the grade of pesticide damage: Grade 3 [2, 5]: 0 | Classification and statistics of the grade of pesticide damage: Grade 0 [2, 6]: 16 | Classification and statistics of the grade of pesticide damage: Grade 1 [2, 6]: 0 | Classification and statistics of the grade of pesticide damage: Grade 2 [2, 6]: 0 | Classification and statistics of the grade of pesticide damage: Grade 3 [2, 6]: 0 | Scores ([2]; pesticide damage score 0-100, topramezone 100 g ai/ha (4×), 7 DAT, Table 1): 0 | Scores ([2]; pesticide damage score 0-100, topramezone 200 g ai/ha (8×), 7 DAT, Table 1): 0 | Resistance evaluation [2, 7]: Highly resistant | Scores [2, 7]: 0 | Grade 0 (classification and statistics of the grade of pesticide damage; number of plants) [2, 7]: 16 | Grade 1 (classification and statistics of the grade of pesticide damage; number of plants) [2, 7]: 0 | Grade 2 (classification and statistics of the grade of pesticide damage; number of plants) [2, 7]: 0 | Grade 3 (classification and statistics of the grade of pesticide damage; number of plants) [2, 7]: 0 | Resistance evaluation [2, 5]: highly resistant (highly resistant plants (scores 0-15)) | Resistance evaluation [2, 8]: Highly resistant | Scores [2, 8]: 0 | Grade 0 (classification and statistics of the grade of pesticide damage; number of plants) [2, 8]: 16 | Grade 1 (classification and statistics of the grade of pesticide damage; number of plants) [2, 8]: 0 | Grade 2 (classification and statistics of the grade of pesticide damage; number of plants) [2, 8]: 0 | Grade 3 (classification and statistics of the grade of pesticide damage; number of plants) [2, 8]: 0 | Resistance evaluation [2, 6]: highly resistant (highly resistant plants (scores 0-15)) | tolerance to topramezone (resistance class) ([2]; topramezone at four-fold or eight-fold field concentration): highly-resistant | tolerance to isoxaflutole (in words) ([3]; in vivo): different degrees of tolerance | Resistance evaluation [3, 9]: Moderately | Scores [3, 9]: 21 | Grade 0 (classification and statistics of the grade of pesticide damage; number of plants) [3, 9]: 6 | Grade 1 (classification and statistics of the grade of pesticide damage; number of plants) [3, 9]: 10 | Grade 2 (classification and statistics of the grade of pesticide damage; number of plants) [3, 9]: 0 | Grade 3 (classification and statistics of the grade of pesticide damage; number of plants) [3, 9]: 0 | Resistance evaluation [3, 10]: moderately | Resistance evaluation [3, 11]: Poorly resistant | Scores [3, 11]: 42 | Grade 0 (classification and statistics of the grade of pesticide damage; number of plants) [3, 11]: 4 | Grade 1 (classification and statistics of the grade of pesticide damage; number of plants) [3, 11]: 4 | Grade 2 (classification and statistics of the grade of pesticide damage; number of plants) [3, 11]: 8 | Grade 3 (classification and statistics of the grade of pesticide damage; number of plants) [3, 11]: 0 | Resistance evaluation [3, 12]: poorly resistant (poorly resistant plants (scores 34-67)) | tolerance to isoxaflutole (resistance class) ([3]; isoxaflutole at four-fold field concentration): poorly-resistant | tolerance to isoxaflutole (resistance class) ([3]; isoxaflutole at two-fold field concentration): moderately-resistant | Classification and statistics of the grade of pesticide damage: Grade 0 [3, 10]: 6 | Classification and statistics of the grade of pesticide damage: Grade 1 [3, 10]: 10 | Classification and statistics of the grade of pesticide damage: Grade 2 [3, 10]: 0 | Classification and statistics of the grade of pesticide damage: Grade 3 [3, 10]: 0 | Classification and statistics of the grade of pesticide damage: Grade 0 [3, 12]: 4 | Classification and statistics of the grade of pesticide damage: Grade 1 [3, 12]: 4 | Classification and statistics of the grade of pesticide damage: Grade 2 [3, 12]: 8 | Classification and statistics of the grade of pesticide damage: Grade 3 [3, 12]: 0 | Scores ([3]; pesticide damage score 0-100, isoxaflutole 140 g ai/ha (2×), 7 DAT, Table 2): 21 | Scores ([3]; pesticide damage score 0-100, isoxaflutole 280 g ai/ha (4×), 7 DAT, Table 2): 42
